Reference: patent US20220401557A1 (Chugai, published 2022)

Molecular target: CD3 on NFAT-RE-luc2-Jurkat cells (human, UniProt P07766 23-207)
Assay: cell-based or functional assay

CD3 on NFAT-RE-luc2-Jurkat cells, sequence (P07766 23-207): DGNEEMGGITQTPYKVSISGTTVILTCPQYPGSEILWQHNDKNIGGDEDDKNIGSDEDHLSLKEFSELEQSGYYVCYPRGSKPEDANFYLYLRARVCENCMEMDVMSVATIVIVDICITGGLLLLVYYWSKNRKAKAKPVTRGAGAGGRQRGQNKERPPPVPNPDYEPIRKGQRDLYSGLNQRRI

increase rate due to the protease treatment (luciferase, uPA-treated / untreated), antibody 0.1 nM [ratio]	increase rate due to the protease treatment (luciferase, uPA-treated / untreated), antibody 1 nM [ratio]	Binder
0.9	1.4	hCE115HAuPA27/GLS//GCH065 (bispecific antibody, human IgG1, kappa, N297A) heavy 1: QDGNEEMGGITQTPYKVSISGTTVILTLSGRSDNHQVQLVESGGGVVQPGRSLRLSCAASGFTFSNAWMHWVRQAPGKGLEWVAQIKAKSNNYATYYAESVKGRFTISRDDSKNSLYLQMNSLKTEDTAVYYCRYVHYGAYYGVDAWGQGTTVTVSSASTKGPSVFPLAPSSKSTSGGTAALGCLVKDYFPEPVTVSWNSGALTSGVHTFPAVLQSSGLYSLSSVVTVPSSSLGTQTYICNVNHKPSNTKVDKKVEPKSCDKTHTCPPCPAPELRGGPKVFLFPPKPKDTLMISRTPEVTCVVVDVSHEDPEVKFNWYVDGVEVHNAKTKPREEQYASTYRVVSVLTVLHQDWLNGKEYKCKVSNKALPAPIEKTISKAKGQPREPQVYTLPPSRKEMTKNQVSLTCLVKGFYPSDIAVEWESNGQPENNYKTTPPYLDSDGSFFLYSKLTVDKSRWQQGNVFSCSVMHEALHNHYTQKSLSLSP light 1: DIVMTQSPLSLPVTPGEPASISCRSSQSLVHSNRNTYLHWYQQKPGQAPRLLIYKVSNRFSGVPDRFSGSGSGTDFTLKISRVEAEDVGVYYCGQGTQVPYTFGQGTKLEIKRTVAAPSVFIFPPSDEQLKSGTASVVCLLNNFYPREAKVQWKVDNALQSGNSQESVTEQDSKDSTYSLSSTLTLSKADYEKHKVYACEVTHQGLSSPVTKSFNRGEC heavy 2: QVQLVQSGAEVKKPGASVTVSCKASGYTFTDYEMHWIRQPPGEGLEWIGAIDGPTPDTAYSEKFKGRVTLTADKSTSTAYMELSSLTSEDTAVYYCTRFYSYTYWGQGTLVTVSSASTKGPSVFPLAPSSKSTSGGTAALGCLVKDYFPEPVTVSWNSGALTSGVHTFPAVLQSSGLYSLSSVVTVPSSSLGTQTYICNVNHKPSNTKVDKKVEPKSCDKTHTCPPCPAPELRGGPKVFLFPPKPKDTLMISRTPEVTCVVVDVSHEDPEVKFNWYVDGVEVHNAKTKPREEQYASTYRVVSVLTVLHQDWLNGKEYKCKVSNKALPAPIEKTISKAKGQPREPQVYTLPPSREEMTKNQVSLTCLVKGFYPSDIAVEWESNGQPENNYKTTPPYLDSDGSFFLYSKLTVDKSRWQQGNVFSCSVMHEALHNHYTQESLSLSP light 2: DIVMTQSPLSLPVTPGEPASISCRSSQPLVHSNRNTYLHWYQQKPGQAPRLLIYKVSNRFSGVPDRFSGSGSGTDFTLKISRVEAEDVGVYYCGQGTQVPYTFGQGTKLEIKRTVAAPSVFIFPPSDEQLKSGTASVVCLLNNFYPREAKVQWKVDNALQSGNSQESVTEQDSKDSTYSLSSTLTLSKADYEKHKVYACEVTHQGLSSPVTKSFNRGEC
0.6	0.7	AN/GLS//GCH065 (bispecific antibody, human IgG1, kappa, N297A) heavy 1: QVQLVESGGGLVQPGRSLRLSCAASGFTFSNAWMHWVRQAPGKGLEWVAQIKDKANGYNAYYAESVKGRFTISRDDSKNSIYLQMNSLKTEDTAVYYCRYVHYTTYAGFSYKFGVDAWGQGTTVTVSSASTKGPSVFPLAPSSKSTSGGTAALGCLVKDYFPEPVTVSWNSGALTSGVHTFPAVLQSSGLYSLSSVVTVPSSSLGTQTYICNVNHKPSNTKVDKKVEPKSCDKTHTCPPCPAPELRGGPKVFLFPPKPKDTLMISRTPEVTCVVVDVSHEDPEVKFNWYVDGVEVHNAKTKPREEQYASTYRVVSVLTVLHQDWLNGKEYKCKVSNKALPAPIEKTISKAKGQPREPQVYTLPPSRKEMTKNQVSLTCLVKGFYPSDIAVEWESNGQPENNYKTTPPYLDSDGSFFLYSKLTVDKSRWQQGNVFSCSVMHEALHNHYTQKSLSLSP light 1: DIVMTQSPLSLPVTPGEPASISCRSSQSLVHSNRNTYLHWYQQKPGQAPRLLIYKVSNRFSGVPDRFSGSGSGTDFTLKISRVEAEDVGVYYCGQGTQVPYTFGQGTKLEIKRTVAAPSVFIFPPSDEQLKSGTASVVCLLNNFYPREAKVQWKVDNALQSGNSQESVTEQDSKDSTYSLSSTLTLSKADYEKHKVYACEVTHQGLSSPVTKSFNRGEC heavy 2: QVQLVQSGAEVKKPGASVTVSCKASGYTFTDYEMHWIRQPPGEGLEWIGAIDGPTPDTAYSEKFKGRVTLTADKSTSTAYMELSSLTSEDTAVYYCTRFYSYTYWGQGTLVTVSSASTKGPSVFPLAPSSKSTSGGTAALGCLVKDYFPEPVTVSWNSGALTSGVHTFPAVLQSSGLYSLSSVVTVPSSSLGTQTYICNVNHKPSNTKVDKKVEPKSCDKTHTCPPCPAPELRGGPKVFLFPPKPKDTLMISRTPEVTCVVVDVSHEDPEVKFNWYVDGVEVHNAKTKPREEQYASTYRVVSVLTVLHQDWLNGKEYKCKVSNKALPAPIEKTISKAKGQPREPQVYTLPPSREEMTKNQVSLTCLVKGFYPSDIAVEWESNGQPENNYKTTPPYLDSDGSFFLYSKLTVDKSRWQQGNVFSCSVMHEALHNHYTQESLSLSP light 2: DIVMTQSPLSLPVTPGEPASISCRSSQPLVHSNRNTYLHWYQQKPGQAPRLLIYKVSNRFSGVPDRFSGSGSGTDFTLKISRVEAEDVGVYYCGQGTQVPYTFGQGTKLEIKRTVAAPSVFIFPPSDEQLKSGTASVVCLLNNFYPREAKVQWKVDNALQSGNSQESVTEQDSKDSTYSLSSTLTLSKADYEKHKVYACEVTHQGLSSPVTKSFNRGEC
1	1	ANGS/GLS//GCH065 (bispecific antibody, human IgG1, kappa, N297A) heavy 1: QDGNEGGGSGGGSQVQLVESGGGLVQPGRSLRLSCAASGFTFSNAWMHWVRQAPGKGLEWVAQIKDKANGYNAYYAESVKGRFTISRDDSKNSIYLQMNSLKTEDTAVYYCRYVHYTTYAGFSYKFGVDAWGQGTTVTVSSASTKGPSVFPLAPSSKSTSGGTAALGCLVKDYFPEPVTVSWNSGALTSGVHTFPAVLQSSGLYSLSSVVTVPSSSLGTQTYICNVNHKPSNTKVDKKVEPKSCDKTHTCPPCPAPELRGGPKVFLFPPKPKDTLMISRTPEVTCVVVDVSHEDPEVKFNWYVDGVEVHNAKTKPREEQYASTYRVVSVLTVLHQDWLNGKEYKCKVSNKALPAPIEKTISKAKGQPREPQVYTLPPSRKEMTKNQVSLTCLVKGFYPSDIAVEWESNGQPENNYKTTPPYLDSDGSFFLYSKLTVDKSRWQQGNVFSCSVMHEALHNHYTQKSLSLSP light 1: DIVMTQSPLSLPVTPGEPASISCRSSQSLVHSNRNTYLHWYQQKPGQAPRLLIYKVSNRFSGVPDRFSGSGSGTDFTLKISRVEAEDVGVYYCGQGTQVPYTFGQGTKLEIKRTVAAPSVFIFPPSDEQLKSGTASVVCLLNNFYPREAKVQWKVDNALQSGNSQESVTEQDSKDSTYSLSSTLTLSKADYEKHKVYACEVTHQGLSSPVTKSFNRGEC heavy 2: QVQLVQSGAEVKKPGASVTVSCKASGYTFTDYEMHWIRQPPGEGLEWIGAIDGPTPDTAYSEKFKGRVTLTADKSTSTAYMELSSLTSEDTAVYYCTRFYSYTYWGQGTLVTVSSASTKGPSVFPLAPSSKSTSGGTAALGCLVKDYFPEPVTVSWNSGALTSGVHTFPAVLQSSGLYSLSSVVTVPSSSLGTQTYICNVNHKPSNTKVDKKVEPKSCDKTHTCPPCPAPELRGGPKVFLFPPKPKDTLMISRTPEVTCVVVDVSHEDPEVKFNWYVDGVEVHNAKTKPREEQYASTYRVVSVLTVLHQDWLNGKEYKCKVSNKALPAPIEKTISKAKGQPREPQVYTLPPSREEMTKNQVSLTCLVKGFYPSDIAVEWESNGQPENNYKTTPPYLDSDGSFFLYSKLTVDKSRWQQGNVFSCSVMHEALHNHYTQESLSLSP light 2: DIVMTQSPLSLPVTPGEPASISCRSSQPLVHSNRNTYLHWYQQKPGQAPRLLIYKVSNRFSGVPDRFSGSGSGTDFTLKISRVEAEDVGVYYCGQGTQVPYTFGQGTKLEIKRTVAAPSVFIFPPSDEQLKSGTASVVCLLNNFYPREAKVQWKVDNALQSGNSQESVTEQDSKDSTYSLSSTLTLSKADYEKHKVYACEVTHQGLSSPVTKSFNRGEC
